biological target: T1, FOLR1 (R&D Systems, Cat #5646-FR) (human, UniProt P15328 25-233); assay: BLI, IgG on anti-human Fc sensor, 50 nM FOLR1
T1 construct: Bought soluble protein; also called Folate Receptor 1
T1 sequence (P15328 25-233 limits assumed): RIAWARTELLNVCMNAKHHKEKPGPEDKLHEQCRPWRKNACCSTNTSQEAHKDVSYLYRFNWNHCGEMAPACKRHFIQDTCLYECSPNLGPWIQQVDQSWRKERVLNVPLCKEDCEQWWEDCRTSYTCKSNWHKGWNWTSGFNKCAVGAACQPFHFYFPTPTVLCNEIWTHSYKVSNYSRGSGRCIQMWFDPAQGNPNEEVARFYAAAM

| Binder | binding result |
| --- | --- |
| MYT2191 (antibody, V domains shown, IgG) VH: EVQLVESGGGVVQPGRSLRLSCSASGFTFSGHGLSWVRQAPGKGLEWVAMISSGGSYTYYADSVKGRFAISRDNAKNTLFLQMDSLRPEDTGVYFCARHGDDPAWFAYWGQGTPVTVSS VL: DIQLTQSPSSLSASVGDRVTITCSVSSSISSNNLHWYQQKPGKAPKPWIYGTSNLASGVPSRFSGSGSGTDYTFTISSLQPEDIATYYCQQWSSYPYMYTFGQGTKVEIK | binds |
| MYT2210 (antibody, V domains shown, IgG) VH: EVQLVESGGGVVQPGRSLRLSCSASGFTFSGYGLSWVRQAPGKGLEWVAMISSGGSYTYYADSVHGRFAISRDNAKNTLFLQMDSLRPEDTGVYFCARHGDDPAWFAYWGQGTPVTVSS VL: DIQLTQSPSSLSASVGDRVTITCSVSSSISSNNLHWYQQKPGKAPKPWIYGTSNLASGVPSRFSGSGSGTDYTFTISSLQPEDIATYYCQQWSSYPYMYTFGQGTKVEIK | binds |
| MYT2192 (antibody, V domains shown, IgG) VH: EVQLVESGGGVVQPGRSLRLSCSASGFTFSGYHLSWVRQAPGKGLEWVAMISSGGSYTYYADSVKGRFAISRDNAKNTLFLQMDSLRPEDTGVYFCARHGDDPAWFAYWGQGTPVTVSS VL: DIQLTQSPSSLSASVGDRVTITCSVSSSISSNNLHWYQQKPGKAPKPWIYGTSNLASGVPSRFSGSGSGTDYTFTISSLQPEDIATYYCQQWSSYPYMYTFGQGTKVEIK | binds |
| MYT2193 (antibody, V domains shown, IgG) VH: EVQLVESGGGVVQPGRSLRLSCSASGFTFSGYGHSWVRQAPGKGLEWVAMISSGGSYTYYADSVKGRFAISRDNAKNTLFLQMDSLRPEDTGVYFCARHGDDPAWFAYWGQGTPVTVSS VL: DIQLTQSPSSLSASVGDRVTITCSVSSSISSNNLHWYQQKPGKAPKPWIYGTSNLASGVPSRFSGSGSGTDYTFTISSLQPEDIATYYCQQWSSYPYMYTFGQGTKVEIK | binds |
| MYT2205 (antibody, V domains shown, IgG) VH: EVQLVESGGGVVQPGRSLRLSCSASGFTFSGYGLSWVRQAPGKGLEWVAMISSGGSYTYHADSVKGRFAISRDNAKNTLFLQMDSLRPEDTGVYFCARHGDDPAWFAYWGQGTPVTVSS VL: DIQLTQSPSSLSASVGDRVTITCSVSSSISSNNLHWYQQKPGKAPKPWIYGTSNLASGVPSRFSGSGSGTDYTFTISSLQPEDIATYYCQQWSSYPYMYTFGQGTKVEIK | binds |
| MYT2211 (antibody, V domains shown, IgG) VH: EVQLVESGGGVVQPGRSLRLSCSASGFTFSGYGLSWVRQAPGKGLEWVAMISSGGSYTYYADSVKHRFAISRDNAKNTLFLQMDSLRPEDTGVYFCARHGDDPAWFAYWGQGTPVTVSS VL: DIQLTQSPSSLSASVGDRVTITCSVSSSISSNNLHWYQQKPGKAPKPWIYGTSNLASGVPSRFSGSGSGTDYTFTISSLQPEDIATYYCQQWSSYPYMYTFGQGTKVEIK | binds |
| MYT2207 (antibody, V domains shown, IgG) VH: EVQLVESGGGVVQPGRSLRLSCSASGFTFSGYGLSWVRQAPGKGLEWVAMISSGGSYTYYAHSVKGRFAISRDNAKNTLFLQMDSLRPEDTGVYFCARHGDDPAWFAYWGQGTPVTVSS VL: DIQLTQSPSSLSASVGDRVTITCSVSSSISSNNLHWYQQKPGKAPKPWIYGTSNLASGVPSRFSGSGSGTDYTFTISSLQPEDIATYYCQQWSSYPYMYTFGQGTKVEIK | binds |
| MYT2198 (antibody, V domains shown, IgG) VH: EVQLVESGGGVVQPGRSLRLSCSASGFTFSGYGLSWVRQAPGKGLEWVAMISHGGSYTYYADSVKGRFAISRDNAKNTLFLQMDSLRPEDTGVYFCARHGDDPAWFAYWGQGTPVTVSS VL: DIQLTQSPSSLSASVGDRVTITCSVSSSISSNNLHWYQQKPGKAPKPWIYGTSNLASGVPSRFSGSGSGTDYTFTISSLQPEDIATYYCQQWSSYPYMYTFGQGTKVEIK | binds |
| MYT2199 (antibody, V domains shown, IgG) VH: EVQLVESGGGVVQPGRSLRLSCSASGFTFSGYGLSWVRQAPGKGLEWVAMISSHGSYTYYADSVKGRFAISRDNAKNTLFLQMDSLRPEDTGVYFCARHGDDPAWFAYWGQGTPVTVSS VL: DIQLTQSPSSLSASVGDRVTITCSVSSSISSNNLHWYQQKPGKAPKPWIYGTSNLASGVPSRFSGSGSGTDYTFTISSLQPEDIATYYCQQWSSYPYMYTFGQGTKVEIK | binds |

Results, then the binder that gave them:

| binding result | Binder |
| --- | --- |
| binds | MYT2202 (antibody, V domains shown, IgG) VH: EVQLVESGGGVVQPGRSLRLSCSASGFTFSGYGLSWVRQAPGKGLEWVAMISSGGSHTYYADSVKGRFAISRDNAKNTLFLQMDSLRPEDTGVYFCARHGDDPAWFAYWGQGTPVTVSS VL: DIQLTQSPSSLSASVGDRVTITCSVSSSISSNNLHWYQQKPGKAPKPWIYGTSNLASGVPSRFSGSGSGTDYTFTISSLQPEDIATYYCQQWSSYPYMYTFGQGTKVEIK |
| binds | MYT2208 (antibody, V domains shown, IgG) VH: EVQLVESGGGVVQPGRSLRLSCSASGFTFSGYGLSWVRQAPGKGLEWVAMISSGGSYTYYADHVKGRFAISRDNAKNTLFLQMDSLRPEDTGVYFCARHGDDPAWFAYWGQGTPVTVSS VL: DIQLTQSPSSLSASVGDRVTITCSVSSSISSNNLHWYQQKPGKAPKPWIYGTSNLASGVPSRFSGSGSGTDYTFTISSLQPEDIATYYCQQWSSYPYMYTFGQGTKVEIK |
| binds | MYT2206 (antibody, V domains shown, IgG) VH: EVQLVESGGGVVQPGRSLRLSCSASGFTFSGYGLSWVRQAPGKGLEWVAMISSGGSYTYYHDSVKGRFAISRDNAKNTLFLQMDSLRPEDTGVYFCARHGDDPAWFAYWGQGTPVTVSS VL: DIQLTQSPSSLSASVGDRVTITCSVSSSISSNNLHWYQQKPGKAPKPWIYGTSNLASGVPSRFSGSGSGTDYTFTISSLQPEDIATYYCQQWSSYPYMYTFGQGTKVEIK |
| binds | MYT2222 (antibody, V domains shown, IgG) VH: EVQLVESGGGVVQPGRSLRLSCSASGFTFSGYGLSWVRQAPGKGLEWVAMISSGGSYTYYADSVKGRFAISRDNAKNTLFLQMDSLRPEDTGVYFCARHGDDPAWFHYWGQGTPVTVSS VL: DIQLTQSPSSLSASVGDRVTITCSVSSSISSNNLHWYQQKPGKAPKPWIYGTSNLASGVPSRFSGSGSGTDYTFTISSLQPEDIATYYCQQWSSYPYMYTFGQGTKVEIK |
| binds | MYT2218 (antibody, V domains shown, IgG) VH: EVQLVESGGGVVQPGRSLRLSCSASGFTFSGYGLSWVRQAPGKGLEWVAMISSGGSYTYYADSVKGRFAISRDNAKNTLFLQMDSLRPEDTGVYFCARHGDDHAWFAYWGQGTPVTVSS VL: DIQLTQSPSSLSASVGDRVTITCSVSSSISSNNLHWYQQKPGKAPKPWIYGTSNLASGVPSRFSGSGSGTDYTFTISSLQPEDIATYYCQQWSSYPYMYTFGQGTKVEIK |
| binds | MYT2214 (antibody, V domains shown, IgG) VH: EVQLVESGGGVVQPGRSLRLSCSASGFTFSGYGLSWVRQAPGKGLEWVAMISSGGSYTYYADSVKGRFAISRDNAKNTLFLQMDSLRPEDTGVYFCARAGDDPAWFAYWGQGTPVTVSS VL: DIQLTQSPSSLSASVGDRVTITCSVSSSISSNNLHWYQQKPGKAPKPWIYGTSNLASGVPSRFSGSGSGTDYTFTISSLQPEDIATYYCQQWSSYPYMYTFGQGTKVEIK |
| binds | MYT2201 (antibody, V domains shown, IgG) VH: EVQLVESGGGVVQPGRSLRLSCSASGFTFSGYGLSWVRQAPGKGLEWVAMISSGGHYTYYADSVKGRFAISRDNAKNTLFLQMDSLRPEDTGVYFCARHGDDPAWFAYWGQGTPVTVSS VL: DIQLTQSPSSLSASVGDRVTITCSVSSSISSNNLHWYQQKPGKAPKPWIYGTSNLASGVPSRFSGSGSGTDYTFTISSLQPEDIATYYCQQWSSYPYMYTFGQGTKVEIK |
| binds | MYT2216 (antibody, V domains shown, IgG) VH: EVQLVESGGGVVQPGRSLRLSCSASGFTFSGYGLSWVRQAPGKGLEWVAMISSGGSYTYYADSVKGRFAISRDNAKNTLFLQMDSLRPEDTGVYFCARHGHDPAWFAYWGQGTPVTVSS VL: DIQLTQSPSSLSASVGDRVTITCSVSSSISSNNLHWYQQKPGKAPKPWIYGTSNLASGVPSRFSGSGSGTDYTFTISSLQPEDIATYYCQQWSSYPYMYTFGQGTKVEIK |
| binds | MYT2203 (antibody, V domains shown, IgG) VH: EVQLVESGGGVVQPGRSLRLSCSASGFTFSGYGLSWVRQAPGKGLEWVAMISSGGSYHYYADSVKGRFAISRDNAKNTLFLQMDSLRPEDTGVYFCARHGDDPAWFAYWGQGTPVTVSS VL: DIQLTQSPSSLSASVGDRVTITCSVSSSISSNNLHWYQQKPGKAPKPWIYGTSNLASGVPSRFSGSGSGTDYTFTISSLQPEDIATYYCQQWSSYPYMYTFGQGTKVEIK |
| binds | MYT2209 (antibody, V domains shown, IgG) VH: EVQLVESGGGVVQPGRSLRLSCSASGFTFSGYGLSWVRQAPGKGLEWVAMISSGGSYTYYADSHKGRFAISRDNAKNTLFLQMDSLRPEDTGVYFCARHGDDPAWFAYWGQGTPVTVSS VL: DIQLTQSPSSLSASVGDRVTITCSVSSSISSNNLHWYQQKPGKAPKPWIYGTSNLASGVPSRFSGSGSGTDYTFTISSLQPEDIATYYCQQWSSYPYMYTFGQGTKVEIK |
| binds | MYT2220 (antibody, V domains shown, IgG) VH: EVQLVESGGGVVQPGRSLRLSCSASGFTFSGYGLSWVRQAPGKGLEWVAMISSGGSYTYYADSVKGRFAISRDNAKNTLFLQMDSLRPEDTGVYFCARHGDDPAHFAYWGQGTPVTVSS VL: DIQLTQSPSSLSASVGDRVTITCSVSSSISSNNLHWYQQKPGKAPKPWIYGTSNLASGVPSRFSGSGSGTDYTFTISSLQPEDIATYYCQQWSSYPYMYTFGQGTKVEIK |
| binds | MYT2204 (antibody, V domains shown, IgG) VH: EVQLVESGGGVVQPGRSLRLSCSASGFTFSGYGLSWVRQAPGKGLEWVAMISSGGSYTHYADSVKGRFAISRDNAKNTLFLQMDSLRPEDTGVYFCARHGDDPAWFAYWGQGTPVTVSS VL: DIQLTQSPSSLSASVGDRVTITCSVSSSISSNNLHWYQQKPGKAPKPWIYGTSNLASGVPSRFSGSGSGTDYTFTISSLQPEDIATYYCQQWSSYPYMYTFGQGTKVEIK |
